Here are results for eight molecules from patent US20220340666A1 (NEW YORK UNIVERSITY, published 2022).

The target in assay [1] is T1, human Galectin-9 CRD1 (residues 1-148), biotinylated (human, UniProt O00182 1-148, biotinylated in vitro with BirA (Avitag)).
T1 construct: Made as GST fusion, GST cleaved off with thrombin, gel filtered, biotinylated; not shown: Avitag upstream of the cloned gene (pGEX vector), left after thrombin cleavage from GST
The assay can be described thus: phage ELISA, phage-displayed Fab on biotinylated CRD.

Assay [2] has as its target T1, human Galectin-9 CRD1 (residues 1-148), …. Briefly: bead-based binding assay, flow cytometry. On the procedure:
(§1) The affinities of the antibodies were assessed using a bead-based assay as previously described (Nishikori et al., J Mol Biol, 2012, 424, 391-399) and surface plasmon resonance (SPR). In the bead-based assay, a biotinylated protein (either a Galectin-9 sample or a Fab sample) was immobilized on streptavidin-coated Dynabeads M280 via the biotin-streptavidin interaction. After blocking the excess biotin-binding sites on the beads using unconjugated biotin, binding titration was performed by incubating the second component (i.e., Fab for immobilized Galectin-9 or vice versa), followed by quantification using a dye-labeled neutravidin (ThermoFisher) and flow cytometry analysis. In experiments where the second component is an IgG, a dye-labeled anti-human IgG or anti-mouse IgG antibody was used for detection.
(In flow cytometry, cells or beads pass a laser one at a time.)

For assay [3] the target is unchanged. The assay can be described thus: bead-based binding assay, flow cytometry. On the procedure: as §1
This is another data set of the same source.

Assay [4] shares this target. The assay can be described thus: bead-based binding assay, flow cytometry. On the procedure: as §1
The source holds these as a separate data set.

Where a chain is given by its changes, count along the chain named. Where two headings read alike, the source gives them in different places.

T1 sequence (O00182 1-148): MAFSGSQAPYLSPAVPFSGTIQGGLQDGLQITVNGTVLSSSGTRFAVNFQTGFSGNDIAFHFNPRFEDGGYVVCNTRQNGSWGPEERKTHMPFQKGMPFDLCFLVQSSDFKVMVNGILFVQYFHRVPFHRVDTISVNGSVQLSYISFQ

B1: G9.1-5 Fab (Fab, V domains shown)
VH: EVQLVESGGGLVQPGGSLRLSCAASGFTIYYSSIHWVRQAPGKGLEWVASISSSYGSTYYADSVKGRFTISADTSKNTAYLQMNSLRAEDTAVYYCARSVSWYPYYYYYGYGSGLDYWGQGTLVTVSS
VL: DIQMTQSPSSLSASVGDRVTITCRASQSVSSAVAWYQQKPGKAPKLLIYSASSLYSGVPSRFSGSRSGTDFTLTISSLQPEDFATYYCQQYYGWFYPVTFGQGTKVEIKR
notes: Avitag at the C-terminus of the heavy chain, biotinylated when required
B1: in assay [1], the binding result is on record as “binds”.

B2: G9.1-8 Fab (Fab, V domains shown)
VH: EVQLVESGGGLVQPGGSLRLSCAASGFTVSSSSIHWVRQAPGKGLEWVAYIYPYSGYTSYADSVKGRFTISADTSKNTAYLQMNSLRAEDTAVYYCARYSTYSWGGIGKWVWGMDYWGQGTLVTVSS
VL: B1 VL with Y91S, G93Y, W94D, F95S, Y96N, V98I
notes: Avitag at the C-terminus of the heavy chain, biotinylated when required; also called G9.1-8 WT Fab
For orientation: Kd means a measure of binding affinity in units of concentration. A higher Kd goes with a looser complex. Turning to B2, the figures for the Kd in assay [2] and in assay [3] were 0.45 nM and 2.13 nM, respectively.

B3: G9.1-7 Fab (Fab, V domains shown)
VH: EVQLVESGGGLVQPGGSLRLSCAASGFTVSSSSIHWVRQAPGKGLEWVASISSYYGYTYYADSVKGRFTISADTSKNTAYLQMNSLRAEDTAVYYCARSYSYGYDYFVKYYTMDYWGQGTLVTVSS
VL: B1 VL with Y92P, W94Y, F95R, Y96G, P97L, V98I
With B3, in assay [1], the binding result is “binds”.

B4: G9.1-9 Fab (Fab, V domains shown)
VH: EVQLVESGGGLVQPGGSLRLSCAASGFTVSSSSIHWVRQAPGKGLEWVAYIYSSSGYTSYADSVKGRFTISADTSKNTAYLQMNSLRAEDTAVYYCARYSSYHYPYWLFAMDYWGQGTLVTVSS
VL: B1 VL with Y91S, G93F, W94H, F95K, Y96I, V98I
As to B4, the binding result in assay [1] is listed as “binds”.

B5: G9.1-8 WT mIgG1 (antibody, V domains shown)
VH: B2 VH
VL: B1 VL with Y91S, G93Y, W94D, F95S, Y96N, V98I
For B5, the Kd worked out at 2.4 nM in assay [2] and 0.63 nM in assay [4].

B6: G9.1-8m13 Fab (Fab, V domains shown)
VH: EVQLVESGGGLVQPGGSLRLSCAASGFTVSSSSIHWVRQAPGKGLEWVAYIYPYSSSSSYADSVKGRFTISADTSKNTAYLQMNSLRAEDTAVYYCARYSTYSSKWVWGMDYWGQGTLVTVSS
VL: B1 VL with Y91S, G93Y, W94D, F95S, Y96N, V98I
notes: Purified Fab; also called G9.1-8mut13
On to B6, for which the equilibrium dissociation constant (Kd) in assay [3] was 20.7 nM. In other words, the double-digit nanomolar range.

B7: G9.1-8m12 Fab (Fab, V domains shown)
VH: EVQLVESGGGLVQPGGSLRLSCAASGFTVSSSSIHWVRQAPGKGLEWVAYIYPYSSSSSYADSVKGRFTISADTSKNTAYLQMNSLRAEDTAVYYCARYSTYSSSKWVWGMDYWGQGTLVTVSS
VL: B1 VL with Y91S, G93Y, W94D, F95S, Y96N, V98I
notes: Purified Fab; also called G9.1-8mut12
In the case of B7, the dissociation constant (Kd) in assay [3] amounted to 2.48 nM.

B8: G9.1-8m14 Fab (Fab, V domains shown)
VH: EVQLVESGGGLVQPGGSLRLSCAASGFTVSSSSIHWVRQAPGKGLEWVAYIYPYSSSSSYADSVKGRFTISADTSKNTAYLQMNSLRAEDTAVYYCARYSTYKWVWGMDYWGQGTLVTVSS
VL: B1 VL with Y91S, G93Y, W94D, F95S, Y96N, V98I
notes: Purified Fab; also called G9.1-8mut14
Molecule B8 returned a dissociation constant (Kd) in assay [3] of 58.5 nM. Against the preceding molecule, the Kd is about 24-fold higher.
